# B1: PDZK1 (parent)
# chain: RETASLKLLPHQPRIVEMKKGSNG
# Variants of: B1
# Assay: protein stability index of a GFP-peptide fusion (GPS, HEK-293T) (PSI 1-6); higher = more stable
# Details: c terminus: a fixed tail appended
# 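Also: lentivirally expressed fusions sorted by FACS into six bins by GFP to DsRed ratio, PSI derived from sequencing read proportions per bin multiplied by bin number.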
row,Variant,protein stability index
1,RETASLKLLPHQPRIVEMKKMSNG [G21M],2.22
2,RETASLKLLPHQPRIVGMKKGSNG [E17G],3.48
3,RETASLKLLPHQPRIVHMKKGSNG [E17H],3.67
4,RETASLKLLPHQPRIVKMKKGSNG [E17K],3.82
5,RETASLKLLPHQPRIVCMKKGSNG [E17C],3.17
6,RETASLKLLPHQPRIVTMKKGSNG [E17T],3.86
7,RETASLKLLPHQPRIVQMKKGSNG [E17Q],2.92
8,RETASLKLLPHQPRIVYMKKGSNG [E17Y],2.51
9,RETASLKLLPHQPRIVWMKKGSNG [E17W],2.7
10,RETASLKLLPHQPRIVRMKKGSNG [E17R],4.02
11,RETASLKLLPHQPRIVLMKKGSNG [E17L],2.66
12,RETASLKLLPHQPRIVPMKKGSNG [E17P],2.97
13,RETASLKLLPHQPRIVNMKKGSNG [E17N],4.28
14,RETASLKLLPHQPRIVDMKKGSNG [E17D],4.08
15,RETASLKLLPHQPRIVFMKKGSNG [E17F],2.81
16,RETASLKLLPHQPRIVSMKKGSNG [E17S],3.67
17,RETASLKLLPHQPRIVIMKKGSNG [E17I],2.42
18,RETASLKLLPHQPRIVVMKKGSNG [E17V],3.21
19,RETASLKLLPHQPRIVEMKKGKNG [S22K],4.03
20,RETASLKLLPHQPRIVEMKKGGNG [S22G],4.28
21,RETASLKLLPHQPRIVEMKKGFNG [S22F],2.47
22,RETASLKLLPHQPRIVEMKKGCNG [S22C],3.25
23,RETASLKLLPHQPRIVEMKKGENG [S22E],4.54
24,RETASLKLLPHQPRIVEMKKGLNG [S22L],3.03

row,Variant,protein stability index
1,RETASLKLLPHQPRIVEMKKGMNG [S22M],3.85
2,RETASLKLLPHQPRIVEMKKGING [S22I],3.38
3,RETASLKLLPHQPRIVEMKKGDNG [S22D],4.55
4,RETASLKLLPHQPRIMEMKKGSNG [V16M],4.17
5,RETASLKLLPHQPRIQEMKKGSNG [V16Q],4.51
6,RETASLKLLPHQPRIWEMKKGSNG [V16W],3.57
7,RETASLKLLPHQPRISEMKKGSNG [V16S],3.92
8,RETASLKLLPHQPRIYEMKKGSNG [V16Y],3.68
9,RETASLKLLPHQPRIPEMKKGSNG [V16P],4.63
10,RETASLKLLPHQPRIGEMKKGSNG [V16G],4.85
11,RETASLKLLPHQPRIDEMKKGSNG [V16D],4.18
12,RETASLKLLPHQPRILEMKKGSNG [V16L],3.87
13,RETASLKLLPHQPRIEEMKKGSNG [V16E],4.53
14,RETASLKLLPHQPRIHEMKKGSNG [V16H],4.35
15,RETASLKLLPHQPRIIEMKKGSNG [V16I],3.9
16,RETASLKLLPHQPRINEMKKGSNG [V16N],4.88
17,RETASLKLLPHQPRIFEMKKGSNG [V16F],4.05
18,RETASLKLLPHQPRITEMKKGSNG [V16T],4.67
19,RETASLKLLPHQPRIAEMKKGSNG [V16A],4.42
20,RETASLKLLPHQPKIVEMKKGSNG [R14K],3.38
21,RETASLKLLPHQPYIVEMKKGSNG [R14Y],3.34
22,RETASLKLLPHQPHIVEMKKGSNG [R14H],3.7
23,RETASLKLLPHQPIIVEMKKGSNG [R14I],3.86
24,RETASLKLLPHQPEIVEMKKGSNG [R14E],4.07

row,Variant,protein stability index
1,RETASLKLLPHQPNIVEMKKGSNG [R14N],4.13
2,RETASLKLLPHQPDIVEMKKGSNG [R14D],4.61
3,RETASLKLLPHQPCIVEMKKGSNG [R14C],3.63
4,RETASLKLLPHQPAIVEMKKGSNG [R14A],4.25
5,RETASLKLLPHQPMIVEMKKGSNG [R14M],2.93
6,RETASLKLLPHQPSIVEMKKGSNG [R14S],3.87
7,RETASLKLLPHQPGIVEMKKGSNG [R14G],4.05
8,RETASLKLLPHQPWIVEMKKGSNG [R14W],3.3
9,RETASLKLLPHQPTIVEMKKGSNG [R14T],4.22
10,RETASLKLLPHQTRIVEMKKGSNG [P13T],3.99
11,RETASLKLLPHQIRIVEMKKGSNG [P13I],3.29
12,RETASLKLLPHQQRIVEMKKGSNG [P13Q],4.81
13,RETASLKLLPHQYRIVEMKKGSNG [P13Y],3.4
14,RETASLKLLPHQLRIVEMKKGSNG [P13L],4.35
15,RETASLKLLPHQHRIVEMKKGSNG [P13H],3.73
16,RETASLKLLPHQMRIVEMKKGSNG [P13M],3.88
17,RETASLKLLPHQARIVEMKKGSNG [P13A],4.09
18,RETASLKLLPHQFRIVEMKKGSNG [P13F],3.63
19,RETASLKLLPHQSRIVEMKKGSNG [P13S],3.92
20,RETASLKLLPHQKRIVEMKKGSNG [P13K],4.07
21,RETASLKLLPHQWRIVEMKKGSNG [P13W],3.25
22,RETASLKLLPHQRRIVEMKKGSNG [P13R],3.77
23,RETASLKLLPHQNRIVEMKKGSNG [P13N],3.67
24,RETASLKLLPHQDRIVEMKKGSNG [P13D],4.22

row,Variant,protein stability index
1,RETASLKLLPHQGRIVEMKKGSNG [P13G],4.14
2,RETASLKLLPHQERIVEMKKGSNG [P13E],4.4
3,RETASLKLLPHQCRIVEMKKGSNG [P13C],2.35
4,RETASLKLLPHQVRIVEMKKGSNG [P13V],4.14
5,RETASLKLLPHLPRIVEMKKGSNG [Q12L],3.27
6,RETASLKLLPHFPRIVEMKKGSNG [Q12F],2.97
7,RETASLKLLPHTPRIVEMKKGSNG [Q12T],3.26
8,RETASLKLLPHWPRIVEMKKGSNG [Q12W],3.2
9,RETASLKLLPHDPRIVEMKKGSNG [Q12D],3.3
10,RETASLKLLPHPPRIVEMKKGSNG [Q12P],4.03
11,RETASLKLLPHRPRIVEMKKGSNG [Q12R],3.65
12,RETASLKLLPHSPRIVEMKKGSNG [Q12S],4.05
13,RETASLKLLPHIPRIVEMKKGSNG [Q12I],2.85
14,RETASLKLLPHVPRIVEMKKGSNG [Q12V],3.09
15,RETASLKLLPHMPRIVEMKKGSNG [Q12M],3.38
16,RETASLKLLPHEPRIVEMKKGSNG [Q12E],2.88
17,RETASLKLLPHGPRIVEMKKGSNG [Q12G],3.62
18,RETASLKLLPHHPRIVEMKKGSNG [Q12H],3.97
19,RETASLKLLPHKPRIVEMKKGSNG [Q12K],3.66
20,RETASLKLLPHNPRIVEMKKGSNG [Q12N],3.84
21,RETASLKLLPHCPRIVEMKKGSNG [Q12C],3.27
22,RETASLKLLPHAPRIVEMKKGSNG [Q12A],3.54

# — the supplement of paper PMC10567573
